# Measurements from paper PMC3627194, “Xentry, a new class of cell-penetrating peptide uniquely equipped for delivery of drugs” (Scientific Reports, 2013).
# Non-standard residues stand in square brackets, D forms with d. Residues, ends and D or L forms follow the SMILES beside them. No end group written: not given here. *: point of attachment. FITC = O=C1OC2(c3ccc(O)cc3Oc3cc(O)ccc32)c2ccc(NC(=S)*)cc21; Biotin = O=C1N[C@H]2[C@H](CS[C@H]2CCCCC(=O)*)N1
# How the values were obtained:
# HepG2 cells = assay: Assay to test for cell permeability of peptides; type: cell-based; conditions: 3 h
# Protocol: Figure 1 Cell-permeability of X-protein peptides. (a) X-protein peptides aa 1–20 and 16–35 are cell-permeable. Four FITC-labelled peptides encompassing aa 1–20, 16–35, 21–40 and 34–53 from the N-terminal region of the X-protein were incubated at 10 μM with HepG2 cells and their uptake by the cells recorded by confocal microscopy. Cell nuclei were stained blue with DAPI. (b) The sequence of the first 35 N-terminal residues of the HBV X-protein are shown with the sequence of Xentry (LCLRPVG; residues 16–22) highlighted in red. Short FITC-labelled peptides (10 μM) aa 16–26, 16–24 and 16–22 (Xentry) derived from peptide aa 16–35 also permeate HepG2 cells (upper panel). […] Cell nuclei were stained blue with DAPI. […] Cell nuclei were stained blue with DAPI. Scale bar, 50 μm.
# HepG2 cells (ATCC, Manassas, VA) were seeded into 8-well chamber slides at 1 × 10^5 cells per well in MEM media (Gibco, Life Technologies New Zealand Ltd) containing 10% FCS and PSG. […] L-isomeric peptides were diluted in 500 μl of MEM media without FCS, whereas D-isomeric peptides were diluted in the same media containing FCS, and each added to cells at a final concentration of 10 μM, or as indicated. The cells were incubated for 3 h at 37°C in a 5% CO2 atmosphere, washed with PBS, fixed with 4% formaldehyde for 30 min, and washed thrice with PBS. A drop of Prolong Gold anti-fade reagent with DAPI (Invitrogen, Life Technologies New Zealand Ltd) was added, and the cells mounted and examined with a Nikon E600 fluorescence microscope or a Leica TCS-SP2 confocal microscope.
# (§1) Supplementary Figure 3. The D-isomeric form of Xentry aa 16-22 is cell permeable, and is stable in serum for at least 4 h.
# (§2) (a) FITC-labelled D-isomeric Xentry was incubated with HepG2 cells at concentrations of […] for 3 h.
# (§3) Uptake was recorded by fluorescence microscopy. Cell nuclei were stained with DAPI. (b) FITC-labelled L-isomeric and D-isomeric forms of Xentry were incubated in serum for 0, 1, and 4 h before incubation with HepG2 cells. Cell nuclei were stained with DAPI. Scale bar, 50 μm. […]
# syndecan-4 = molecular target: T1, syndecan-4 (Homo sapiens, UniProt P31431); assay: Anti-syndecan 4 antibody blockade of Xentry uptake by HepG2 cells; type: cell-based; conditions: FITC-lclrpvg 10 μM, 3 h
# T1 construct: endogenous in cells; host or cells: HepG2 (ATCC)
# T1 sequence (P31431 19-198): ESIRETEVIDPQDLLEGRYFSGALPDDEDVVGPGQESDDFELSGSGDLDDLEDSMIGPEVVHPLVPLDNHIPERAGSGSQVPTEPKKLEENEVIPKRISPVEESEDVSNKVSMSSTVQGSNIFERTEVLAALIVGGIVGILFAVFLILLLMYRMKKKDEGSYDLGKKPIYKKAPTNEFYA
# Protocol: Cell nuclei were stained blue with DAPI. […] Scale bar, 50 μm.
# The media was replaced with 500 μl of MEM media containing 10% FCS and either 1 μg/ml of a goat anti-human syndecan-4 antibody (R&D Systems, Minneapolis, MN), or 1 μg/ml of the control goat anti-human TNF-related apoptosis-inducing ligand (TRAIL) antibody (Santa Cruz Biotechnology Inc., Santa Cruz, CA). The cells were then incubated at 37°C and 5% CO2 for 30 min. FITC-labelled Xentry (FITC-lclrpvg) was added at a final concentration of 10 μM and the cells incubated for 3 h at 37°C in a 5% CO2 atmosphere. The cells were washed thrice with PBS, fixed with 4% formaldehyde for 15 min, washed with PBS, and DAPI added for visualization of cell nuclei. They were examined using a Nikon E600 fluorescence microscope, and photographed.
# [1] = type: in vitro ADME; conditions: FITC-labelled peptide incubated in serum 0, 1 and 4 h, then incubated with HepG2 cells; read-out cell uptake by fluorescence microscopy
# Protocol: as §1, §2, §3
# WM-266-4 melanoma cells [2] = assay: Apoptosis of melanoma cells by Xentry-conjugated anti-B-raf antibody (annexin-V fluos); type: cell-based; conditions: annexin-V fluos staining
# Protocol: HepG2 cells were seeded at 1 × 10^5 cells per well into 8-well chamber slides, and cultured overnight at 37°C in an atmosphere of 5% CO2. They were washed thrice with serum-free MEM media and resuspended in 500 μl of serum-free MEM. A 30 μl solution containing conjugation buffer, 0.85 μg of the Xentry peptide biotin-[sequence], 9 μg of a FITC-labelled rabbit IgG (Sigma, MO) or 1 μg of a rabbit polyclonal anti-B-raf antibody (Sigma, MO), and 4.8 μg of transglutaminase was incubated for 1 h at 37°C. The resulting conjugates were added to the cells, which were incubated for 3 h at 37°C and washed thrice with PBS. […] Cells incubated with the Xentry-anti-B-raf antibody conjugate were stained with annexin-V Fluos (Roche Diagnostics NZ Ltd., Auckland) to detect cell apoptosis. The cells were examined using a Nikon E600 fluorescence microscope, and photographed.
# WM-266-4 melanoma cells [3] = assay: Xentry-KALA fusion peptide delivery of anti-B-raf siRNA, apoptosis (annexin-V fluos); type: cell-based; conditions: 10 μM Xentry-KALA fusion peptide with 30 nM Tex615-labelled siRNA against B-raf, 72 h
# Protocol: Figure 3 Xentry-mediated delivery of antibody and siRNA cargoes into cells. (a) Uptake of Xentry-conjugated and unconjugated FITC-labelled rabbit IgG by HepG2 cells. Cell nuclei were stained blue with DAPI. (b) Representative cell showing staining of tubulin by a Cy3-labelled anti-β-tubulin antibody delivered to HepG2 cells by Xentry. HepG2 cells were incubated with the Xentry- anti-β-tubulin antibody conjugate for 1 h, washed, then incubated and photographed 24 h later. For comparison, a representative fixed and permeabilized cell is shown which has been stained by the free anti-β-tubulin antibody. […] (c) The abilities of a Xentry-conjugated and unconjugated anti-B-raf antibody to induce the apoptosis of WM-266-4 melanoma cells, as evidenced by staining of cells with annexin-V fluos (green). […] For comparison, the anti-B-raf siRNA was transfected into cells using the PolyMag agent. The siRNA was omitted from controls. Scale bar, 50 μm.
# A 600 μl solution was prepared containing 30 nM of a Tex615-labelled siRNA against B-raf (sense 5′-XAGAAUUGGAUCUGGAUCAUTTY-3′; antisense 5′-[…]-3′; X = C12 amino, Y = Tex615) (Integrated DNA Technologies, Iowa) and 10 μM of a Xentry-KALA fusion peptide (biotin-[…]; Peptide 2.0 Inc., Chantilly, VA). […] Cells were stained with annexin-V Fluos to detect apoptotic cells by fluorescence microscopy, and photographed. […]
# [4] = Biodistribution of a Xentry-β-galactosidase conjugate in mice (X-gal staining); type: in vivo, Balb/c mice
# Protocol: One milligram of recombinant β-galactosidase (Medicago AB, Uppsala, Sweden) was cross-linked to 0.2 mg of a FITC-labelled Xentry peptide fused to a polyglutamine stretch (FITC-lclrpvggrrQQQQQQrr; Peptide 2.0 Inc., Chantilly, VA) with 4.8 μg of transglutaminase in 40 μl of transglutaminase buffer for 1 h at 37°C. […] Control mice (one mouse per time point) were intravenously injected with 1 mg of unconjugated β-galactosidase. The heart, lungs, liver, spleen, pancreas, kidneys, stomach, small intestine, colon, muscle and brain of each mouse were collected, and frozen at −80°C. Frozen organ sections were fixed in 0.25% glutaraldehyde for 15 min, washed thrice with PBS and stained with 1 mg/ml of X-gal (Sigma, MO) for 3 h at 37°C. The sections were washed thrice with PBS, examined by light microscopy and photographed.
# live HepG2 cells = conditions: live unfixed cells, 3 h 37°C, β-galactosidase substrate C12FDG 10 min, fluorescence microscopy
# Protocol: (a) Visualization of the internalization of an unlabelled Xentry-β-galactosidase conjugate, and unconjugated β-galactosidase, after a 10 min incubation with live cells preloaded with the green fluorescent substrate C12FDG.
# HepG2 cells were seeded at 1 × 10^5 cells per well into 8-well chamber slides, and cultured overnight at 37°C in a 5% CO2 atmosphere. They were washed thrice with serum-free MEM media, and 500 μl of serum-free MEM added to the wells. A Xentry peptide (biotin-[sequence]; Peptide 2.0 Inc., Chantilly, VA) where LCLRP was fused to a polyglutamine stretch was conjugated to recombinant β-galactosidase. A 30 μl solution containing conjugation buffer (5 mM CaCl2, 1 mM DTT, 50 mM Tris-HCl), 0.84 μg of Xentry peptide, 16.5 μg of β-galactosidase (5 U; Sigma, MO), and 4.8 μg of transglutaminase (Ajinomoto, Itasca, IL) was incubated for 1 h at 37°C. The resulting conjugate was added to the cells, which were incubated for 3 h at 37°C. The cells were washed thrice with PBS, and the β-galactosidase substrate 5-dodecanoylaminofluorescein di-β-D-galactopyranoside (Imagene C12FDG; Invitrogen Life Technologies New Zealand Ltd) added, followed by incubation for 10 min at 37°C. The cells were washed, and examined using a Nikon E600 fluorescence microscope and photographed.
compound,measurement,setting,value
CC(C)C[C@@H](NC(=O)[C@@H](CS)NC(=O)[C@@H](CC(C)C)NC(=S)Nc1ccc2c(c1)C(=O)OC21c2ccc(O)cc2Oc2cc(O)ccc21)C(=O)N[C@H](CCCNC(=N)N)C(=O)N1CCC[C@@H]1C(=O)N[C@@H](C(=O)NCC(=O)O)C(C)C [D-isomeric form] ({FITC}-[dL][dC][dL][dR][dP][dV]G-OH),Uptake into HepG2 cells at increasing concentrations,"HepG2 cells; FITC-labelled D-isomeric Xentry 10, 20, 50 and 100 µM",increased uptake
same,Cell permeability (HepG2 cells),"HepG2 cells; FITC-labelled D-isomeric Xentry, media containing FCS, fluorescence microscopy",cell-permeable
same,Uptake by HepG2 cells after control anti-TRAIL antibody,syndecan-4; 1 μg/ml control antibody against TRAIL,no effect
same,Uptake by HepG2 cells after anti-syndecan-4 antibody,"syndecan-4; 1 μg/ml goat anti-human syndecan-4 antibody 30 min pre-incubation, MEM 10% FCS",blocked
same,Time stable in serum,[1],at least 4 h
"Biotin-LCLRPVGGGRRRQQQQQQRRR [Xentry-anti-B-raf antibody conjugate, rabbit polyclonal anti-B-raf antibody conjugated to Xentry polyglutamine peptide]",Apoptosis of WM-266-4 melanoma cells,WM-266-4 melanoma cells [2],undergo apoptosis
"Biotin-LCLRPVGGGWEAKLAKALAKALAKHLAKALAKALKACEA (cysteine pairing not given here) [Xentry-KALA fusion peptide, tested as complex with anti-B-raf siRNA]",Apoptosis of WM-266-4 melanoma cells,WM-266-4 melanoma cells [3],causing cell apoptosis
"FITC-lclrpvggrrQQQQQQrr [Xentry-β-galactosidase conjugate, recombinant β-galactosidase cross-linked to FITC-labelled D-form Xentry polyglutamine peptide (injected into mice)]","Retention in stained organs at 1 h, except for the brain","[4]; 1 mg i.v., 1 h, intensity of staining diminished",retained the bioactive conjugate
same,β-galactosidase activity in organs at 6 h,"[4]; 1 mg i.v., 6 h",only the spleen and small intestine retained some β-galactosidase activity
same,β-galactosidase activity in organs by 24 h,"[4]; 1 mg i.v., 24 h, data not shown",completely lost
same,Distribution within organs,"[4]; 1 mg i.v., X-gal stained sections","concentrated in the enterocytes of the small intestine, epithelium of the stomach, and in the marginal zone or marginal sinus of the spleen"
same,"Staining of pancreas, colon and muscle at 15 min","[4]; 1 mg i.v., data not shown",poorly stained
same,X-gal staining of organs at 15 min,"[4]; 1 mg i.v., lungs, liver, spleen, kidneys, stomach, small intestine, colon, muscle, brain listed as stained",most of the organs stained blue
"unconjugated β-galactosidase: recombinant β-galactosidase without Xentry, control [reference compound]",X-gal staining of organs,"[4]; 1 mg unconjugated β-galactosidase i.v., one mouse per time point, data not shown",did not stain
same,Uptake by live HepG2 cells,live HepG2 cells,not
